Data: patent publication CN111592595A (UNIV NANJING MEDICAL, dated 2020)

Columns and labels:
SARS-Cov-2-RBD-his蛋白 = SARS-Cov-2-RBD-his蛋白 (SARS-Cov-2, UniProt P0DTC2 319-541)
[1] = molecular target: SARS-Cov-2 spike (on lentiviral pseudovirus) (SARS-Cov-2, UniProt P0DTC2 14-1273); experiment: cell-based or functional assay
SARS-Cov-1-RBD-hFc蛋白 = molecular target: T1, SARS-Cov-1-RBD-hFc蛋白 (SARS-Cov-1, UniProt P59594 306-527); experiment: phage ELISA on coated antigen, anti-M13-HRP detection
T1 construct: domain: RBD

B1: 4A3 IgG重组蛋白 (human IgG1) (antibody, V domains shown)
VH: EVQLLESGGGLVQPGGSLRLSCAASGFTFSSYAMSWVRQAPGKGLEWVSSIASSGYYTDYADSVKGRFTISRDNSKNTLYLQMNSLRAEDTAVYYCAKDADSFDYWGQGTLVTVSS
VL: DIQMTQSPSSLSASVGDRVTITCRASQSISSYLNWYQQKPGKAPKLLIYAASYLQSGVPSRFSGSGSGTDFTLTISSLQPEDFATYYCQQAYSAPSTFGQGTKVEIK
Question: What does the source list for B1?
Answer: Kd (SARS-Cov-2-RBD-his蛋白): 3.62 nM; IC50 of inhibition of pseudovirus infection of ACE2-CHO cells (Luciferase活性) [1]: 0.28 µg/mL

B2: 4A3噬菌体 (4A3 scFv displayed on phage) (scFv)
scFv: EVQLLESGGGLVQPGGSLRLSCAASGFTFSSYAMSWVRQAPGKGLEWVSSIASSGYYTDYADSVKGRFTISRDNSKNTLYLQMNSLRAEDTAVYYCAKDADSFDYWGQGTLVTVSSGGGGSGGGGSGGGGSDIQMTQSPSSLSASVGDRVTITCRASQSISSYLNWYQQKPGKAPKLLIYAASYLQSGVPSRFSGSGSGTDFTLTISSLQPEDFATYYCQQAYSAPSTFGQGTKVEIK
notes: also called 4A3抗体; 4A3的噬菌体
Question: Does B2 bind (SARS-Cov-1-RBD-hFc蛋白)?
Answer: no binding (tested: 5μg/ml coating)
